Laboratory results published in publication PMC9951844.

Target: SARS-CoV-2 wildtype spike antigen of the SPR column (construct not stated) (SARS-CoV-2)
Experiment: SPR

B1: YB9-258 (antibody, V domains shown)
VH: EVQLVESGGGLIQPGGSLRLSCAASGLTVSSNYMHWVRQAPGKGLEWVSVLYAGGSAFYADSVKGRFTISRNNSKNTLYLQMNSLRAEDTAIYYCARGLGDYLDSWGQGTLVTVSS
VL: DIQMTQSPSSVSASVGDRVTITCRASQGIGSWLAWYQQKPGKAPQLLIYAASTLQSGVPPRFSGSGSGTDFTLTITSLQPEDFASYYCQQANSVLALTFGGGTKVEIK
Kd: 0.18 nM
